{
  "source": "the supplement of paper PMC9170038",
  "system": "MS2 coat protein",
  "test": "apparent KD of MS2 coat protein; designed switch direction (-1 OFF switch, 1 ON switch): -1; higher = weaker reporter binding",
  "summary_of_the_method": "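The reported apparent KD is a per-design median over clusters, from curve fits of normalised cluster fluorescence. Protein titrations used SNAP-549-labelled MS2 coat protein, doubled from 0.7 or 1.5 nM to 3 µM, in Tris-HCl pH 7.5 buffer with KCl, MgCl2, BSA, DTT, tRNA and Tween-20, with no input, 200 uM small-molecule ligand, or an oligonucleotide input. The RNA switches were transcribed on Illumina chips by stalled E. coli RNA polymerase.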",
  "key": {"[1]": {"conditions": "input ligand: microRNA oligo, concentration not stated"}, "[2]": {"conditions": "Eterna round: R95, input ligand: FMN 200 uM"}, "[3]": {"conditions": "Eterna round: R95, input ligand: microRNA oligo, concentration not stated"}, "[4]": {"conditions": "Eterna round: R95, input ligand: none"}},
  "data": [
    {"sequence": "UAUGUGUCAGGAUAUUAGUAGUAAAUGAAUAAAAUUAUUACUGAGAAGGGACAUGAGGAUCACCCAUGUGCCUC [Mat - Exclusion 4 - Eli Mod - D27] (Eterna round: R97, puzzle: Exclusion 4)", "values": [
      {"measurement": "apparent KD of MS2 coat protein", "setting": "input ligand: FMN 200 uM", "result": 345, "unit": "nM"},
      {"measurement": "apparent KD of MS2 coat protein", "setting": "input ligand: none", "result": 35.2, "unit": "nM"}
    ]},
    {"sequence": "GCGGAUUAUGUAGGAUAUCGGUCAGUUUCUGAUCGAGAAGGACAUGAGGAUCACCCAUGUAAAUUGCUCGCUUUGUGAGCCCGC [JL ENG1 3.63] (Eterna round: R96, puzzle: Exclusion NG 1)", "values": [
      {"measurement": "apparent KD of MS2 coat protein", "setting": "input ligand: FMN 200 uM", "result": 34.5, "unit": "nM"},
      {"measurement": "apparent KD of MS2 coat protein", "setting": "[1]", "result": 12.4, "unit": "nM"},
      {"measurement": "apparent KD of MS2 coat protein", "setting": "input ligand: none", "result": 14.8, "unit": "nM"}
    ]},
    {"sequence": "AGUAACCGUCACGAAAGUGAUGGUUACACAAGUGUAAUAACAUGAGGAUCACCCAUGUCCUCAUUUGCUCGUCUUAU [Sensor 3 - 36] (puzzle: Sensor v3, turn-off variant 2)", "values": [
      {"measurement": "apparent KD of MS2 coat protein", "setting": "[2]", "result": 41.9, "unit": "nM"},
      {"measurement": "apparent KD of MS2 coat protein", "setting": "[3]", "result": 121, "unit": "nM"},
      {"measurement": "apparent KD of MS2 coat protein", "setting": "[4]", "result": 49.4, "unit": "nM"}
    ]},
    {"sequence": "GGAAAGUGAGGAUAUGGUAAUUUAAUUAUUAAUUAAUUAAUCCAGAAGGCACAUGAGGAUCACCCAUGUAAAUG [Mat - Exclusion 4 - D91] (puzzle: Exclusion 4)", "values": [
      {"measurement": "apparent KD of MS2 coat protein", "setting": "[3]", "result": 30, "unit": "nM"}
    ]},
    {"sequence": "CCGGCUUAGGAGGAUAUAGGAGUCGAAAGACACCUAGAAGGCCUAACAUGAGGAUCACCCAUGUGUCCUACCGG [Mod of Eli 6 - Jieux - Exclusion 6] (Eterna round: R97, puzzle: Exclusion 6)", "values": [
      {"measurement": "apparent KD of MS2 coat protein", "setting": "input ligand: FMN 200 uM", "result": 78.4, "unit": "nM"},
      {"measurement": "apparent KD of MS2 coat protein", "setting": "input ligand: none", "result": 24, "unit": "nM"}
    ]},
    {"sequence": "AGUAAGCUAGGAUAUGCUUUGGGAAAGCAAUCCUUCGAUAAACUUGAGGAUCACCCAAGUAGAAGGAGCUUACU [jl-ex2.4.50 ViennaUCT mod] (Eterna round: R97, puzzle: Exclusion 2)", "values": [
      {"measurement": "apparent KD of MS2 coat protein", "setting": "input ligand: FMN 200 uM", "result": 99.8, "unit": "nM"},
      {"measurement": "apparent KD of MS2 coat protein", "setting": "input ligand: none", "result": 25.4, "unit": "nM"}
    ]},
    {"sequence": "UUAACAUGCUGGUGAUCAUACAUGAGGAUCACCCAUGUAACAAGCUUUUUGCUCGUCUUAUAAGAUCACCAGCAUGU [Stov1/9-A1] (Eterna round: R97, puzzle: Sensor, turn-off variant 1)", "values": [
      {"measurement": "apparent KD of MS2 coat protein", "setting": "input ligand: FMN 200 uM", "result": 14.7, "unit": "nM"},
      {"measurement": "apparent KD of MS2 coat protein", "setting": "input ligand: none", "result": 12.2, "unit": "nM"}
    ]},
    {"sequence": "UUAAUAGCAGCGAGAUCCCACAUGAGGAUCACCCAUGUCGUAGACGAAAAGUCUACGUUAGCUCGUCUUAUAAAUAU [Winner reversed engineered 39] (Eterna round: R97, puzzle: Sensor, turn-off variant 1)", "values": [
      {"measurement": "apparent KD of MS2 coat protein", "setting": "input ligand: FMN 200 uM", "result": 95.1, "unit": "nM"},
      {"measurement": "apparent KD of MS2 coat protein", "setting": "input ligand: none", "result": 111, "unit": "nM"}
    ]},
    {"sequence": "ACAUUGAAUGUGAGGAUAUCGAUGUGAUGGGUUGUCGAGAAGGCACAUGAGGAUCACCCAUGUGGGAUGUAGCA [JR_BMEx4_Sub033] (Eterna round: R97, puzzle: Brourd's mod of Exclusion 4)", "values": [
      {"measurement": "apparent KD of MS2 coat protein", "setting": "input ligand: FMN 200 uM", "result": 349, "unit": "nM"},
      {"measurement": "apparent KD of MS2 coat protein", "setting": "input ligand: none", "result": 91.2, "unit": "nM"}
    ]},
    {"sequence": "CUAGCGAUUGUAGGAUAUCGGACUGUUUCAGUCUGAGAAGGACAUGAGGAUCACCCAUGUGAAGCUACGUGAGUAGCACGCUAG [JL ENG1 3.84] (Eterna round: R96, puzzle: Exclusion NG 1)", "values": [
      {"measurement": "apparent KD of MS2 coat protein", "setting": "input ligand: FMN 200 uM", "result": 46.1, "unit": "nM"},
      {"measurement": "apparent KD of MS2 coat protein", "setting": "[1]", "result": 15.4, "unit": "nM"},
      {"measurement": "apparent KD of MS2 coat protein", "setting": "input ligand: none", "result": 24.5, "unit": "nM"}
    ]},
    {"sequence": "AGAGAAUACUCAGGAUAUCUUAAUAGAAAGAGUAGAGAAGGGAGACAUGAGGAUCACCCAUGUGAAGUCUUGAGACUACAUGGU [Prohibition 28 - Jieux - Exclusion NG 1] (Eterna round: R96, puzzle: Exclusion NG 1)", "values": [
      {"measurement": "apparent KD of MS2 coat protein", "setting": "[1]", "result": 305, "unit": "nM"}
    ]},
    {"sequence": "UCCUUACAUGAGGAUCACCCAUGUCAGGAUAUCUCCUCACUGCGCUUGCGCAGUGAAUAGAGAAGGGACGGGCU [JL ViennaUCT Aner mod 8] (puzzle: Exclusion 1)", "values": [
      {"measurement": "apparent KD of MS2 coat protein", "setting": "[2]", "result": 36.6, "unit": "nM"},
      {"measurement": "apparent KD of MS2 coat protein", "setting": "[3]", "result": 32.4, "unit": "nM"},
      {"measurement": "apparent KD of MS2 coat protein", "setting": "[4]", "result": 40.1, "unit": "nM"}
    ]},
    {"sequence": "GAUUAGCGAGGAUAUACAUGAGGAUCACCCAUGUGAUCCUAAGGCUGAUCAAGCCUAUGUAGAAGGCGCAAAUC [salish99_ex3_r5_001] (Eterna round: R97, puzzle: Exclusion 3)", "values": [
      {"measurement": "apparent KD of MS2 coat protein", "setting": "input ligand: FMN 200 uM", "result": 35.2, "unit": "nM"},
      {"measurement": "apparent KD of MS2 coat protein", "setting": "input ligand: none", "result": 224, "unit": "nM"}
    ]},
    {"sequence": "AAGUACCGUCACGAUAGUGAUGGUACAACAAGUAGUGAAACAUGAGGAUCACCCAUGUCCUCUUUUGCUCGUCUUAU [Sensor 3 - 88] (puzzle: Sensor v3, turn-off variant 2)", "values": [
      {"measurement": "apparent KD of MS2 coat protein", "setting": "[2]", "result": 931, "unit": "nM"},
      {"measurement": "apparent KD of MS2 coat protein", "setting": "[3]", "result": 54, "unit": "nM"},
      {"measurement": "apparent KD of MS2 coat protein", "setting": "[4]", "result": 969, "unit": "nM"}
    ]},
    {"sequence": "AAUCCACAUGAGGAUCACCCAUGUCAGGAUAUGGUGACGCGGGUUUCGGUGCGUGUUGCCAGAAGGGACGGCUG (puzzle: Exclusion 1)", "values": [
      {"measurement": "apparent KD of MS2 coat protein", "setting": "[3]", "result": 23.8, "unit": "nM"}
    ]},
    {"sequence": "CACGCAUCAGGAUAUACAUGAGGAUCACCCAUGUGUUCCAGCUAGGAAACUAGCAAAUGUAGAAGGGAUGCGUG [Mat - Exclusion 3 - JL Mod - D7] (Eterna round: R97, puzzle: Exclusion 3)", "values": [
      {"measurement": "apparent KD of MS2 coat protein", "setting": "input ligand: FMN 200 uM", "result": 727, "unit": "nM"},
      {"measurement": "apparent KD of MS2 coat protein", "setting": "input ligand: none", "result": 208, "unit": "nM"}
    ]},
    {"sequence": "ACAAGAAUUUUGCUCGUAAAGUAGAAACGCGAGAGCGGGACAUGAGGAUCACCCAUGUAAAGGCAGUUGGUGGAGAU [JR_SV3TOV2_Sub028] (puzzle: Sensor v3, turn-off variant 2)", "values": [
      {"measurement": "apparent KD of MS2 coat protein", "setting": "[2]", "result": 39.7, "unit": "nM"},
      {"measurement": "apparent KD of MS2 coat protein", "setting": "[3]", "result": 53.2, "unit": "nM"},
      {"measurement": "apparent KD of MS2 coat protein", "setting": "[4]", "result": 48.7, "unit": "nM"}
    ]},
    {"sequence": "CCGCAAAUGAAGGAUAUCGUAUCGGAUACGAUACGAGAAGGUCGAACAUGAGGAUCACCCAUGUGUCCUAGCGG [Fiskers Ex 6 - 41] (puzzle: Exclusion 6)", "values": [
      {"measurement": "apparent KD of MS2 coat protein", "setting": "[2]", "result": 19.4, "unit": "nM"},
      {"measurement": "apparent KD of MS2 coat protein", "setting": "[3]", "result": 11.2, "unit": "nM"},
      {"measurement": "apparent KD of MS2 coat protein", "setting": "[4]", "result": 12.1, "unit": "nM"}
    ]},
    {"sequence": "CGGGACCGAGGAUAUACAUGUGGACUCGAGUUGACGUUGGGACAUGAGGAUCACCCAUGUAGAAGGCGGAUCUU [Eternabot (L2) Solution 57] (Eterna round: R97, puzzle: Exclusion 2)", "values": [
      {"measurement": "apparent KD of MS2 coat protein", "setting": "input ligand: FMN 200 uM", "result": 270, "unit": "nM"},
      {"measurement": "apparent KD of MS2 coat protein", "setting": "input ligand: none", "result": 741, "unit": "nM"}
    ]},
    {"sequence": "CUAGGUCGAGGAUAUACAUGAGGAUCACCCAUGUCGGUUCCAUGAGAGCUAGACACUAGUAGAAGGCGGUAGGC [Eternabot (L2) Solution 60] (Eterna round: R97, puzzle: Exclusion 3)", "values": [
      {"measurement": "apparent KD of MS2 coat protein", "setting": "input ligand: FMN 200 uM", "result": 26.1, "unit": "nM"},
      {"measurement": "apparent KD of MS2 coat protein", "setting": "input ligand: none", "result": 27.8, "unit": "nM"}
    ]},
    {"sequence": "UGCGUUCAAGGAUAUACAUGAGGAUCACCCAUGUGGAUGGCCGUUGUGUGAACACUUAGUAGAAGGUGACACGG [Eternabot (L2) Solution 5] (Eterna round: R97, puzzle: Exclusion 3)", "values": [
      {"measurement": "apparent KD of MS2 coat protein", "setting": "input ligand: FMN 200 uM", "result": 51.8, "unit": "nM"},
      {"measurement": "apparent KD of MS2 coat protein", "setting": "input ligand: none", "result": 71.2, "unit": "nM"}
    ]},
    {"sequence": "UGCUGACGAGGAUAUACAUGAGGAUCACCCAUGUUGGUUCAGCGACUUCGGUCGCAAUGUAGAAGGCGUCAGCA [E3/9-A5] (Eterna round: R97, puzzle: Exclusion 3)", "values": [
      {"measurement": "apparent KD of MS2 coat protein", "setting": "input ligand: FMN 200 uM", "result": 230, "unit": "nM"},
      {"measurement": "apparent KD of MS2 coat protein", "setting": "input ligand: none", "result": 523, "unit": "nM"}
    ]},
    {"sequence": "AGCGAUCAUGUUAGGAUAUCCAAGCAGACGCUCAAGGAGAAGGAACAUGAGGAUCACCCAUGUUUGAUCCAAAC [Usrediza] (Eterna round: R97, puzzle: Brourd's mod of Exclusion 4)", "values": [
      {"measurement": "apparent KD of MS2 coat protein", "setting": "input ligand: FMN 200 uM", "result": 104, "unit": "nM"},
      {"measurement": "apparent KD of MS2 coat protein", "setting": "input ligand: none", "result": 19.7, "unit": "nM"}
    ]}
  ]
}
